This is an account of results in the RNAGym collection of RNA variant scans (doi:10.1073/pnas.2313332121).

To fix the notation:
B1: TPR t1 (parent)
chain: GACCAAUCUGCCCUCAGAGCUCGAGAACAUCUUCGGAUGCAGAGGAGGCAGGCUUCGGUGGCGCGAUAGCGCCAACGUCCUCAACCUCCAAUGCAUCCCACCACAUGAUGAUGCCUGAAGAGCCUUGGUUUUUUG

Variants of B1 are the subject of this data set. Description: polymerase ribozyme fitness, log enrichment relative to wild type (log ratio); higher = more active; in vitro selection for triplet polymerase activity. An outline of the steps: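 Mutant libraries of both subunits of a heterodimeric triplet polymerase ribozyme were PCR-built, transcribed, and selected once in triplicate, with frozen incubation at −7 °C and capture of gel-excised extended constructs on streptavidin beads before RT-PCR. Illumina sequencing of input and output libraries was filtered to genotypes with ≥10 input reads and ≥1 read per output. Fitness is the logarithm of genotype enrichment over wild-type enrichment, using inverse-variance-weighted replicate averages. The logarithm is base 2.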
On to G57U G93A, for which the “polymerase ribozyme fitness (log ratio)” value came to 0.0639. To C56G A68G C73U A95G belongs -3.3; to C56G C72U U130A, -1.31.

In the case of C56A G93A, the “polymerase ribozyme fitness (log ratio)” value is -0.661. Under C56A G93C stands -1.88. Under C56G U112G stands 0.023; under C56G A66C, -1.08; under C56U G69A, -3.53. To C56U G69C belongs -4.69; to U54G C56G C72A G93A, -4.53; to C56U C94A A105G, -3.08. Regarding C56U G113A, the “polymerase ribozyme fitness (log ratio)” value was -0.858. To G58A C85U belongs -1.88; to G57C A90G G113U C115A, -5.11; to U54G C85U U116G, -3.02.

In the case of C56U C82A U106G G117U, the “polymerase ribozyme fitness (log ratio)” value is -4.65. To C56G G93A C115A C123U G128U belongs -4.6. As to C56U C89A U92C G117U, the “polymerase ribozyme fitness (log ratio)” value is -5.23. Under C56G C62U U106A G110U stands -0.758; under C56G G110U G135C, -1.62; under C56U C79G C102U C104U, -4.64.

With U55G G61U C114U, the “polymerase ribozyme fitness (log ratio)” value is -1.66. For C56G C101U G120A, the “polymerase ribozyme fitness (log ratio)” value was -0.227. Under C56U U81G C97U stands -1.35. Turning to U55C C70U C88G, the “polymerase ribozyme fitness (log ratio)” value is -0.976.

C56U A83U: the “polymerase ribozyme fitness (log ratio)” value amounted to 0.108. Under C56A C104A A105U G110A stands -7.24; under C56A G71U G122A, -2.05. As for U55G A66U, the “polymerase ribozyme fitness (log ratio)” value is -0.936. Turning to G58C C76U C104A G113U A119C, the “polymerase ribozyme fitness (log ratio)” value is -6.29.

With C56G A121U, the “polymerase ribozyme fitness (log ratio)” value turned out to be 1.73. Under C56A A83U C85U C99U stands -3.58. To G57U A105G G113A belongs -4.1. Under C56U C62U C101U G122A stands -2.35; under C56G U87A C115U, -1.94.

For U55G G69A C73A, the “polymerase ribozyme fitness (log ratio)” value was -3.04. To U55C G58A G122A belongs -0.971; to C56U C76G, -2.08.

Consider C56U C98A, for which the “polymerase ribozyme fitness (log ratio)” value is -5.17. To U54G G61A C80A G120U belongs -5.8. Under C56A G113A stands -0.455; under C56U C73G, -2. Under C56A C70G stands -3.6. For C56A C70U, the “polymerase ribozyme fitness (log ratio)” value was -0.609. Under U55C C82A C124G stands 1.37; under G57A U96G A105U C123G G127A, -5.35; under U55A A83G, -0.95. Consider C56G C101U, for which the “polymerase ribozyme fitness (log ratio)” value is -0.0823. Under C56G U81A U87A stands -1.8. Take U55G C89G: the “polymerase ribozyme fitness (log ratio)” value was -1.51. Take U55C C56A A84C A111G U129A: the “polymerase ribozyme fitness (log ratio)” value was -2.42. Under C56A U106G G110C stands -5.41. To U54G A103U belongs -4.6; to C56U G69A G113U C123G U130G, -6.22; to C56U C97U A108G U116C U133G, -3.98.

For the variant U55A A111U, the “polymerase ribozyme fitness (log ratio)” value was -2.8. Under C56G G57U G63U stands -3.14. To C56U A83C A121U G127U U133G belongs 1.28; to C56A C76A G120U, -1.15; to C56U C114U, -1.71. To C56A C101G belongs -1.76. Turning to U55A C79U C97U C115U G127C, the “polymerase ribozyme fitness (log ratio)” value was -3.52. To G57U G110A G127A belongs -2.29; to C56G C64U C80A, -2.96. As for G58C A111C U112C, the “polymerase ribozyme fitness (log ratio)” value was -0.0453.

Turning to C56U C85G, the “polymerase ribozyme fitness (log ratio)” value is -2.65. Consider G58A G135U, for which the “polymerase ribozyme fitness (log ratio)” value was -1.49. Under U55A G71U C102U A121G U132A stands 0.31. Regarding C56U C123A U126A, the “polymerase ribozyme fitness (log ratio)” value turned out to be 0.177.

Consider G58C C73A C98G, for which the “polymerase ribozyme fitness (log ratio)” value was -6.44. To C56U A100C belongs -1.29; to C56U G69U C82U A84U, -3. As to G57A G69C, the “polymerase ribozyme fitness (log ratio)” value is -1.82.

For C56U U109C, the “polymerase ribozyme fitness (log ratio)” value was -2.15. Under G58C A91U stands -2.24. To C56U U131A belongs -0.176; to G57A A100U, -1.61; to U55A C79G, -0.669. Under C56A U112A G120A G135U stands -2.22; under C56A C72U G93U, -1.63; under C56G C72U C88U U106A U133A, -1.24. C56U C79A C101U: the “polymerase ribozyme fitness (log ratio)” value was -1.23.

Turning to C56U G57C C70A U92A, the “polymerase ribozyme fitness (log ratio)” value was -6.45. To C56A C80G C86U belongs -3.12; to C56U G110C, -3.43; to U55G C115U, -0.797. To U55C G60A C94A G113U belongs -4.46; to C56U C72A G77A C97A, -3.63; to G58U C98U U125A, -1.35. Under C56G C88A C115U A119G stands 1.4; under C56U A90U, -0.55; under G57C C79U G110A, -3.76.

Turning to C56A G63C C102A, the “polymerase ribozyme fitness (log ratio)” value is -4.29.

Consider C56A G60A C101A, for which the “polymerase ribozyme fitness (log ratio)” value is -1.49. To C56U U78G G93U G113A belongs -2.45.

Consider G57A G63U, for which the “polymerase ribozyme fitness (log ratio)” value was -2.43.

G58A G69A: the “polymerase ribozyme fitness (log ratio)” value was -2.24.

On to G58U G63A C82A C97U G110A, for which the “polymerase ribozyme fitness (log ratio)” value was -4.64. Take C56G C70A A83G U96C G120A: the “polymerase ribozyme fitness (log ratio)” value is -4.37.

Turning to G58A U92A, the “polymerase ribozyme fitness (log ratio)” value was -2.93. To G58A G60C G120C belongs -3.34; to G58A C86U, -0.881. To C56U A84G U133G belongs -1.14. Under C56U C62A stands -5.47; under C56U C62G, -5.27; under U54G U55A G93C C115G, -5.45. In the case of U55C C56A A90G C94G G110C U116A A121G, the “polymerase ribozyme fitness (log ratio)” value is -6.03. To C56U C115U belongs -0.661; to U55G G63A U81C, -3.9. To G58A G61A G93A G113C U125C G135A belongs -2.01; to G57U C82G G110U, -2.25; to C56A U59C U87C U112A, 0.408. Under G57A C123U stands -0.636; under G57U C79A G93C U112G, -2.9; under U54C U87A A95U U130A, -2.56. For C56U C88A G127C, the “polymerase ribozyme fitness (log ratio)” value was -1.72. To C56G A100U belongs -0.785. Under C56G C72G U87G C98U stands -1.99; under C56U U125A, -0.748.

As to C56A C76A C88A C115U, the “polymerase ribozyme fitness (log ratio)” value is -3.94. C56U G61C: the “polymerase ribozyme fitness (log ratio)” value is -6.29.

Turning to C56U G69U A90C C94A C104G G113U G122A, the “polymerase ribozyme fitness (log ratio)” value was -6.84. In the case of C56A A83G G135U, the “polymerase ribozyme fitness (log ratio)” value is -2.3. Under G58U G71A G77A stands 0.0877; under C56U U78C U87A, 0.212; under C56A C104U U106A U109A, -5.35.

Regarding G58C A90U U109A C114U, the “polymerase ribozyme fitness (log ratio)” value was -5.55.

C56A G71A: the “polymerase ribozyme fitness (log ratio)” value was -3.71. To C56A G71C belongs -4.4; to G57A G69A C76G, -3.53; to G57U C88U A108G, -3.61. To C56G U133A belongs -0.615; to C56G G63C C114G, -5.3. Under C56U C97A stands -4.36. With C56G G63C C115A, the “polymerase ribozyme fitness (log ratio)” value is -2.19. Turning to C56G G69A A119U, the “polymerase ribozyme fitness (log ratio)” value is -3.54. Under C56A C99U stands -2.82; under C56A G69A, -3.3. For G57A U78C U87C C104U G113A, the “polymerase ribozyme fitness (log ratio)” value was -1.61. Regarding C56G C89A, the “polymerase ribozyme fitness (log ratio)” value is -2.22. Under G57U C94G stands -1.04; under U55C C72G A83G U126A, -2.13. Under G58C A83U C85A U112G U129G stands -0.79; under U54G C114A, -1.69; under U55A C73U C86G C99U, -4.02.

Take C56A C115U: the “polymerase ribozyme fitness (log ratio)” value was -1.67. To G58A C88U C94U G127C G135U belongs -3.94; to C56A C89U C102U G113U, -6.7; to G58A U81C C85G, -2.26. Under G58C U59C A83C U106A stands -0.577; under C56A A119U, -1.36. To U55G G61U C123A belongs 1.22.

G57U G60C: the “polymerase ribozyme fitness (log ratio)” value is -3.3. Under G57A G63U A75U U133A stands -1.97. Take G58C C70U: the “polymerase ribozyme fitness (log ratio)” value was -0.846. Turning to G57C C82G A95G A111U C123U, the “polymerase ribozyme fitness (log ratio)” value is -5.52. Take C56U A105U G122A: the “polymerase ribozyme fitness (log ratio)” value is -2.96.

With C56A C62U C114U, the “polymerase ribozyme fitness (log ratio)” value is -2.3.

With G58U G69U C97A G120C, the “polymerase ribozyme fitness (log ratio)” value is -1.35. Under U55C A90U stands -1.58; under C56A C89U, -1. Under C56U A95C stands -1.26; under C56U A95G, 0.263; under U55C C72A U78C C79U A121G, 2.46.

Turning to C56A U112G, the “polymerase ribozyme fitness (log ratio)” value is -0.994.

C56G C72A: the “polymerase ribozyme fitness (log ratio)” value is -2.48. Regarding C56A C88U C101U U106G C123A, the “polymerase ribozyme fitness (log ratio)” value was -1.58.
